Data published in publication PMC3276543, “Structural Basis of Transcriptional Gene Silencing Mediated by Arabidopsis MOM1” (PLoS Genetics, 2012).

Biological target: the molecule itself
Experiment: crystal structure; hanging drop vapor diffusion at 4°C, 0.1 M Tris pH 8.5, 0.3 M magnesium formate dihydrate; SAD phasing with seleno-methionine protein; native data to 3.2 Å

B1: MOM1 fragment corresponding to amino acid positions 1700 to 1814 (CMM2-containing protein fragment) (domain or fragment, Arabidopsis thaliana, UniProt Q9M658 1700-1814, looked up)
chain: HSAGVTALVPSLLNNGTEQIAVQPVPQIPFPVFNDPFLHELEKLRRESENSKKTFEEKKSILKAELERKMAEVQAEFRRKFHEVEAEHNTRTTKIEKDKNLVIMNKLLANAFLSK
notes: MORPHEUS' MOLECULE1 (MOM1), Arabidopsis thaliana, protein of 2001 amino acids, residues 1700-1814; residues 1729-1811 are ordered in the crystal; A seleno-methionine-containing form (E. coli strain 834) was used for phasing only; the 3.2 A data set is of the native protein; also called CMM2 protein fragment; CMM2 domain
In the case of B1, the “stoichiometry N” value is reported as 2.
